Read-outs that look alike come from different tables or passages of the source.
Key:
[1] = ex vivo biodistribution of 111In-labeled ligands; design: species or system BALB/c nude mice; settings: male, BALB/c nude, mouse, iv, 0.3 nmol, total radioactivity, 2 h p.i.; for tissue uptake at 2 h: 10 MBq/mouse, i.v.
Method: (§1) All animal experiments were approved by the institutional Animal Welfare Committee of the Radboud University Medical Center and were conducted in accordance to the guidelines of the Revised Dutch Act on Animal Experimentation. Animal experiments were performed in 8–10 weeks old male BALB/c nude mice (Janvier). The mice were housed in individually ventilated cages (Blue line IVC, 3–5 mice per cage), under standard non-sterile conditions with cage enrichment present. There was free access to chlorophyll-free animal chow (Sniff Voer) and water. Mice were subcutaneously inoculated with 3.0 × 10^6 LS174T-PSMA cells in the right flank and 1.5 × 10^6 LS174T WT cells in the left flank (diluted in 200-µl RPMI 1640 medium). When xenografts were approximately 0.5 cm^3 (10–14 days after injection), mice were block-randomized into groups based on tumor size. The researchers were not blinded for the experimental groups.
(§2) Mice were intravenously injected with 0.3 nmol PSMA ligand, labeled with 10 MBq ^111In (molar activity 33.3 MBq/nmol) in PBS + 0.5% (w/v) BSA. For the ex vivo biodistribution, five groups (one group for each ligand) of four mice were included. Two hours p.i., all mice were euthanized by CO2/O2-asphyxiation. For two mice of each group (2 mice/ligand), background-subtracted fluorescence images were acquired with the IVIS imaging system (Xenogen VivoVision IVIS Lumina II, PerkinElmer), with a 640-nm excitation filter and a Cy5.5 emission filter and an acquisition time of 10 s. Next, µSPECT/CT imaging was performed in the same two mice per group, with a 1.0-mm diameter pinhole mouse collimator tube (U-SPECT II, MILabs). Mice were scanned for 30 min followed by a CT scan for anatomical reference (spatial resolution 160 μm, 615 μA, 65 kV). MILabs reconstruction software was used to reconstruct the µSPECT/CT scans, via an ordered-subset expectation maximization algorithm, energy windows 154–188 keV and 220–270 keV, 3 iterations, 16 subsets, and voxel size of 0.75 mm. SPECT/CT maximum intensity projections (MIPs) were created using the Inveon Research Workplace software (Siemens Preclinical Solutions, version 4.1). NIR fluorescence images were analyzed using Living Image software (PerkinElmer, version 4.2). After imaging, relevant tissues were dissected, weighed, and measured for radioactivity in a gamma-counter (2480 WIZARD^2 Automatic Gamma Counter, PerkinElmer). In addition, a blocking experiment with PSMA-N064 and PSMA-617 was performed. Full experimental procedures and results can be found in the supplementary data (Page 5, Supplementary Fig. 3).

[2] = system: LS174T-PSMA and LS174T wildtype xenografts; assay: ex vivo biodistribution of 111In-labeled ligands; design: species or system BALB/c nude mice; settings: 0.3 nmol, 2 h p.i.
Method: as §1, §2

[3] = system: LS174T-PSMA cells; assay: in vitro targeted PDT assay (CellTiter-Glo); format: cell-based, human; settings: 30 nM ligand, irradiated with 100 J/cm^2
Method: LS174T wildtype (LS174T-WT) and LS174T-PSMA cells were cultured to confluency in 48-well plates. Cells were incubated (2 h, 5% CO2, 37 °C) with 30-nM PSMA ligand in binding buffer (RPMI 1640 + 0.5% BSA) in triplicate. After washing with PBS, a 0.5-ml binding buffer was added to each well, and cells were irradiated with a NIR light-emitting diode (690 ± 20 nm). The typical forward voltage was 2.6 V creating a power output of 490 mW using 126 individual LED bulbs to ensure homogenous illumination of the area of interest predefined as 5 × 3 cm. The cells were irradiated at NIR radiant exposures of 100 J/cm^2 ([…]) and subsequently incubated for 1 h at 37 °C. Cells that only received the PSMA ligand, only the NIR light, or neither the ligand nor the light were included as controls. Cytotoxic effects of PDT with PSMA ligands were determined with a CellTiter-Glo™ assay (Promega Benelux) according to the manufacturer’s instructions. The binding buffer was replaced with 100-µl fresh binding buffer and 100-µl CellTiter-Glo® 2.0 Assay. Plates were shaken (2 min) and incubated for 10 min at room temperature. Next, luminescence was measured in a plate reader (Tecan Infinite® 200 PRO) to determine the metabolic activity of the cells.

[4] = system: LS174T-PSMA cells; assay: in vitro binding and internalization assay; format: cell-based, human; settings: 37 °C, 2 h
Method: The binding and internalization characteristics of the ligands were determined using LS174T-PSMA cells. Cells were cultured to confluency in 6-well plates followed by incubation with 50,000 counts per minute of ^111In-labeled ligand (0.1–0.25 pmol/well) in 1-ml RPMI + 0.5% BSA (37 °C, 2 h). Non-specific binding was determined by coincubation with 2(phosphonomethyl)-pentane-1,5-dioic acid (2-PMPA, 21.57 µM). PSMA-specific binding was defined as total binding minus the non-specific binding. To retrieve the membrane-bound fraction, cells were washed twice with PBS and incubated for 10 min at 0 °C with acid buffer (154-mM NaCl, 0.1 M acetic acid, pH 2.6). After incubation, the membrane-bound fraction was collected. Then, cells were washed and lysed with 0.1 M NaOH, and the cell lysate (intracellular activity) was collected. Intracellular and membrane-bound activity fractions were measured in a gamma-counter (2480 WIZARD^2 Automatic Gamma Counter, PerkinElmer).

[5] = LS174T wildtype tumor, n=4, read-out: Biodistribution Tumor- LS174T
[6] = LS174T-PSMA tumor, n=4, read-out: Biodistribution Tumor+ LS174T-PSMA
[7] = adrenals, n=4, read-out: Biodistribution Adrenals
[8] = blood, n=4, read-out: Biodistribution Blood
[9] = bone marrow, n=4, read-out: Biodistribution Bone marrow
[10] = bone, n=4, read-out: Biodistribution Bone
[11] = duodenum, n=4, read-out: Biodistribution Duodenum
[12] = heart, n=4, read-out: Biodistribution Heart
[13] = kidney, n=4, read-out: Biodistribution Kidney
[14] = liver, n=4, read-out: Biodistribution Liver
[15] = lung, n=4, read-out: Biodistribution Lung
[16] = muscle, n=4, read-out: Biodistribution Muscle
[17] = pancreas, n=4, read-out: Biodistribution Pancreas
[18] = prostate, n=4, read-out: Biodistribution Prostate
[19] = salivary glands, n=4, read-out: Biodistribution Salivary glands
[20] = spleen, n=4, read-out: Biodistribution Spleen
[21] = stomach, n=4, read-out: Biodistribution Stomach
[22] = tumor (LS174T-PSMA xenograft) / blood, read-out: Tumor/Blood ratio
[23] = tumor (LS174T-PSMA xenograft) / kidney, read-out: Tumor/Kidney ratio
[24] = tumor (LS174T-PSMA xenograft) / liver, read-out: Tumor/Liver ratio
[25] = tumor (LS174T-PSMA xenograft) / spleen, read-out: Tumor/Spleen ratio

Row | Compound | tissue uptake at 2 h [1, 5] [%ID/g] | tissue uptake at 2 h [1, 6] [%ID/g] | tissue uptake at 2 h [1, 7] [%ID/g] | tissue uptake at 2 h [1, 8] [%ID/g] | tissue uptake at 2 h [1, 9] [%ID/g] | tissue uptake at 2 h [1, 10] [%ID/g] | tissue uptake at 2 h [1, 11] [%ID/g] | tissue uptake at 2 h [1, 12] [%ID/g] | tissue uptake at 2 h [1, 13] [%ID/g] | tissue uptake at 2 h [1, 14] [%ID/g] | tissue uptake at 2 h [1, 15] [%ID/g] | tissue uptake at 2 h [1, 16] [%ID/g] | tissue uptake at 2 h [1, 17] [%ID/g] | tissue uptake at 2 h [1, 18] [%ID/g] | tissue uptake at 2 h [1, 19] [%ID/g] | tissue uptake at 2 h [1, 20] [%ID/g] | tissue uptake at 2 h [1, 21] [%ID/g] | tissue to tissue ratio at 2 h [1, 22] | tissue to tissue ratio at 2 h [1, 23] | tissue to tissue ratio at 2 h [1, 24] | also measured
1 | C[Si](C)(CCC[N+](CCCS(=O)(=O)[O-])(CCCS(=O)(=O)O)CCCS(=O)(=O)O)O[Si]1(O[Si](C)(C)CCC[N+](CCCS(=O)(=O)[O-])(CCCS(=O)(=O)O)CCCS(=O)(=O)O)n2c3c4ccccc4c2N=C2N=C(N=c4c5c(OCCCOC(=O)NCCCCCC(=O)NCCCC[C@H](NC(=O)CCC(C(=O)O)N6CCN(CC(=O)O)CCN(CC(=O)O)CCN(CC(=O)O)CC6)C(=O)N[C@@H](Cc6ccccc6)C(=O)N[C@@H](CCC(=O)O)C(=O)N[C@@H](CCC(=O)O)C(=O)NCCCCCC(=O)NCCCC[C@H](NC(=O)N[C@@H](CCC(=O)O)C(=O)O)C(=O)O)cccc5c(n41)=NC1=NC(=N3)c3ccccc31)c1ccccc12 (stereo partly drawn) [PSMA-N064] | 0.7 ± 0.3 | 14 ± 2 | 1.6 ± 0.4 | 0.3 ± 0.1 | 0.2 ± 0.1 | 0.7 ± 0.1 | 0.3 ± 0.1 | 0.4 ± 0.1 | 74 ± 17 | 0.9 ± 0.2 | 0.5 ± 0.1 | 0.1 ± 0.04 | 0.3 ± 0.05 | 0.6 ± 0.1 | 0.4 ± 0.04 | 1.4 ± 0.3 | 0.4 ± 0.1 | 54 ± 14.7 | 0.2 ± 0.03 | 15.6 ± 3.6 | tissue to tissue ratio at 2 h [1, 25]: 9.6 ± 0.4; Tumor/Negative tumor ratio [2]: 23.8 ± 9.7; Tumor/Prostate ratio [2]: 21.9 ± 1.7; Tumor/Salivary gland ratio [2]: 33.8 ± 6.6
2 | C[Si](C)(CCC[N+](CCCS(=O)(=O)[O-])(CCCS(=O)(=O)O)CCCS(=O)(=O)O)O[Si]1(O[Si](C)(C)CCC[N+](CCCS(=O)(=O)[O-])(CCCS(=O)(=O)O)CCCS(=O)(=O)O)n2c3c4ccccc4c2N=C2N=C(N=c4c5c(OCCCOC(=O)NCCCCCC(=O)NCCCC[C@H](NC(=O)CN6CCN(CC(=O)O)CCN(CC(=O)O)CCN(CC(=O)O)CC6)C(=O)NCCCC[C@H](NC(=O)[C@H](CCC(=O)O)NC(=O)c6ccccc6)C(=O)NCc6ccc(C(=O)N[C@@H](Cc7ccc8ccccc8c7)C(=O)NCCCC[C@H](NC(=O)N[C@@H](CCC(=O)O)C(=O)O)C(=O)O)cc6)cccc5c(n41)=NC1=NC(=N3)c3ccccc31)c1ccccc12 [PSMA-N01] | 1.1 ± 0.2 | 21 ± 3 | 1.8 ± 0.1 | 1.1 ± 0.1 | 0.3 ± 0.2 | 0.7 ± 0.1 | 0.7 ± 0.1 | 0.6 ± 0.1 | 90 ± 7 | 1.5 ± 0.2 | 2.7 ± 0.9 | 0.2 ± 0.03 | 0.4 ± 0.1 | 0.6 ± 0.1 | 0.8 ± 0.1 | 2.2 ± 0.4 | 0.7 ± 0.1 | 20 ± 2.5 | 0.2 ± 0.04 | 14.6 ± 2.4 | tissue to tissue ratio at 2 h [1, 25]: 9.9 ± 1.4; Biodistribution Kidney ([2]; 10 MBq/mouse, i.v., n=4): 99.2 ± 11.5 %ID/g; Tumor/Negative tumor ratio [2]: 19.7 ± 6.5; Tumor/Prostate ratio [2]: 35.6 ± 4.6; Tumor/Salivary gland ratio [2]: 27.8 ± 4.8; cell viability [3]: 23% ± 5%; internalization percentage (percentage of cell-associated ligand that was internalized) [4]: 73–90%
